Paper PMC6233052 (Molecular Biology of the Cell, 2018)

T1: HA-tagged WT R-ras (UniProt P10301 1-218)
T1 sequence: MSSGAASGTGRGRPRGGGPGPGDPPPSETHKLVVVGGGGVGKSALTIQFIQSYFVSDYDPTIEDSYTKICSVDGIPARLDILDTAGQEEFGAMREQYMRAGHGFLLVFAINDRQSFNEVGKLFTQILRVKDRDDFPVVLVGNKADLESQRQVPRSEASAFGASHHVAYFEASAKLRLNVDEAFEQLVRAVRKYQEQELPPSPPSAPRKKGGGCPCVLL

T2: HA-tagged constitutively active R-ras (G38V) (UniProt P10301 1-218, G38V)
T2 sequence: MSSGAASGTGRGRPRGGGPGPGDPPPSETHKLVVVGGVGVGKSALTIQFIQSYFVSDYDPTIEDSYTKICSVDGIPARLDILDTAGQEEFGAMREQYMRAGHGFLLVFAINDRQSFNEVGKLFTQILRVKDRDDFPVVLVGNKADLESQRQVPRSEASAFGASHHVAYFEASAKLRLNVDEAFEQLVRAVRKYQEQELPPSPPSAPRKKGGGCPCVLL

T3: HA-tagged CA R-ras mutant (P202A; P203A) (UniProt P10301 1-218, G38V | P202A | P203A)
T3 sequence: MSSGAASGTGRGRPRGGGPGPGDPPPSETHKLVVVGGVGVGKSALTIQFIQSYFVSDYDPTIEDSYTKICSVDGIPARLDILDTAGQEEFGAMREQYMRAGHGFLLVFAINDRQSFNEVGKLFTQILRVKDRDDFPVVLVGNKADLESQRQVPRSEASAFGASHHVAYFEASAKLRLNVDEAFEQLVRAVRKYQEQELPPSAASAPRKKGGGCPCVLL

T4: HA-tagged full-length FliI (UniProt Q9JJ28 1-1271)
T4 sequence: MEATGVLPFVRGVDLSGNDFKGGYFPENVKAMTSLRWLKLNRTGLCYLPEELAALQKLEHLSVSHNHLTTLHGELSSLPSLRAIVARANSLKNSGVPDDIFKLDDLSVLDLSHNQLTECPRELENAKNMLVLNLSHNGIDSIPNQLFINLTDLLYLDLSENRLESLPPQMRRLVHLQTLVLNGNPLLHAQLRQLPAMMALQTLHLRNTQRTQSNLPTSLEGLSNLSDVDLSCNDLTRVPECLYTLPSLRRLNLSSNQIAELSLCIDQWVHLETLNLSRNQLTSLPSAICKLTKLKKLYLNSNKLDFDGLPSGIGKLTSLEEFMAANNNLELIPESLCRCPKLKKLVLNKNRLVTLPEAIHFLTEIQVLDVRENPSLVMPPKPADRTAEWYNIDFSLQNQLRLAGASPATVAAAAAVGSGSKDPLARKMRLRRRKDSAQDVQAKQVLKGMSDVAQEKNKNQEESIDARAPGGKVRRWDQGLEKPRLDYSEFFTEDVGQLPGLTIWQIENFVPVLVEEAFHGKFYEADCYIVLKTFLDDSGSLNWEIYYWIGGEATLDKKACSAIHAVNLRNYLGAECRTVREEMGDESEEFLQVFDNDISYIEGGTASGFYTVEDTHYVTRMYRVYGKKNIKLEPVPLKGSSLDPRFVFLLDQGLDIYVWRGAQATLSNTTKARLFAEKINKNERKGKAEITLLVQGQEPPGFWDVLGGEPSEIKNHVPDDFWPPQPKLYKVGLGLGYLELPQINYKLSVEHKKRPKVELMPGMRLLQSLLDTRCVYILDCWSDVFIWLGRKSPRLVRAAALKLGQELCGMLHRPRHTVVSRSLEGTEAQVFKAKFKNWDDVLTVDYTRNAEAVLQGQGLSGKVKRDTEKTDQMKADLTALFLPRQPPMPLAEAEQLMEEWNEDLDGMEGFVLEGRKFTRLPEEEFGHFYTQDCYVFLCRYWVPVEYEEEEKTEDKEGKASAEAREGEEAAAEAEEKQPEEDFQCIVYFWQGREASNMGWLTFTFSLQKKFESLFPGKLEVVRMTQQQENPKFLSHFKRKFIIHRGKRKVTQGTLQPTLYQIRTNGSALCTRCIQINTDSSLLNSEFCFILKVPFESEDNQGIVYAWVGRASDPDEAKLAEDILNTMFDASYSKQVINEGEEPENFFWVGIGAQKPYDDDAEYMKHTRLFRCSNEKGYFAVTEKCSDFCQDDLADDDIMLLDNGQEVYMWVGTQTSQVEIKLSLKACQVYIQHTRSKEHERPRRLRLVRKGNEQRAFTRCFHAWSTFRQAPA


How the values were obtained:
Test in all cases: co-IP
HA-tagged WT R-ras = biological target: T1, HA-tagged WT R-ras
[1] = biological target: T2, HA-tagged constitutively active R-ras …
[2] = biological target: T3, HA-tagged CA R-ras mutant (P202A; P203A)
HA-tagged FliI LRR = biological target: HA-tagged FliI LRR
[3] = biological target: T4, HA-tagged full-length FliI

| Binder | fold association compared with DN R-ras (HA-tagged WT R-ras) [fold] | fold association compared with DN R-ras [1] [fold] | fold reduction of association compared with CA R-ras [2] [fold] | fold association compared with FliI GLD (HA-tagged FliI LRR) [fold] | fold association compared with FliI GLD [3] [fold] |
| --- | --- | --- | --- | --- | --- |
| Flightless I (FliI), endogenous (natural protein) MEATGVLPFVRGVDLSGNDFKGGYFPENVKAMTSLRWLKLNRTGLCYLPEELAALQKLEHLSVSHNHLTTLHGELSSLPSLRAIVARANSLKNSGVPDDIFKLDDLSVLDLSHNQLTECPRELENAKNMLVLNLSHNGIDSIPNQLFINLTDLLYLDLSENRLESLPPQMRRLVHLQTLVLNGNPLLHAQLRQLPAMMALQTLHLRNTQRTQSNLPTSLEGLSNLSDVDLSCNDLTRVPECLYTLPSLRRLNLSSNQIAELSLCIDQWVHLETLNLSRNQLTSLPSAICKLTKLKKLYLNSNKLDFDGLPSGIGKLTSLEEFMAANNNLELIPESLCRCPKLKKLVLNKNRLVTLPEAIHFLTEIQVLDVRENPSLVMPPKPADRTAEWYNIDFSLQNQLRLAGASPATVAAAAAVGSGSKDPLARKMRLRRRKDSAQDVQAKQVLKGMSDVAQEKNKNQEESIDARAPGGKVRRWDQGLEKPRLDYSEFFTEDVGQLPGLTIWQIENFVPVLVEEAFHGKFYEADCYIVLKTFLDDSGSLNWEIYYWIGGEATLDKKACSAIHAVNLRNYLGAECRTVREEMGDESEEFLQVFDNDISYIEGGTASGFYTVEDTHYVTRMYRVYGKKNIKLEPVPLKGSSLDPRFVFLLDQGLDIYVWRGAQATLSNTTKARLFAEKINKNERKGKAEITLLVQGQEPPGFWDVLGGEPSEIKNHVPDDFWPPQPKLYKVGLGLGYLELPQINYKLSVEHKKRPKVELMPGMRLLQSLLDTRCVYILDCWSDVFIWLGRKSPRLVRAAALKLGQELCGMLHRPRHTVVSRSLEGTEAQVFKAKFKNWDDVLTVDYTRNAEAVLQGQGLSGKVKRDTEKTDQMKADLTALFLPRQPPMPLAEAEQLMEEWNEDLDGMEGFVLEGRKFTRLPEEEFGHFYTQDCYVFLCRYWVPVEYEEEEKTEDKEGKASAEAREGEEAAAEAEEKQPEEDFQCIVYFWQGREASNMGWLTFTFSLQKKFESLFPGKLEVVRMTQQQENPKFLSHFKRKFIIHRGKRKVTQGTLQPTLYQIRTNGSALCTRCIQINTDSSLLNSEFCFILKVPFESEDNQGIVYAWVGRASDPDEAKLAEDILNTMFDASYSKQVINEGEEPENFFWVGIGAQKPYDDDAEYMKHTRLFRCSNEKGYFAVTEKCSDFCQDDLADDDIMLLDNGQEVYMWVGTQTSQVEIKLSLKACQVYIQHTRSKEHERPRRLRLVRKGNEQRAFTRCFHAWSTFRQAPA | 2.5 | 3.5 | 4 |  |  |
| R-ras, endogenous (natural protein) MSSGAASGTGRGRPRGGGPGPRDPPPGETHKLVVVGGGGVGKSALTIQFIQSYFVSDYDPTIEDSYTKICTVDGIPARLDILDTAGQEEFGAMREQYMRAGNGFLLVFAINDRQSFNEVGKLFTQILRVKDRDDFPIVLVGNKADLENQRQVLRSEASSFSASHHMTYFEASAKLRLNVDEAFEQLVRAVRKYQEQELPPSPPSAPRKKDGGCPCVLL |  |  |  | 4 | 4.6 |
